{"source": "the DeepSol protein solubility set", "data": [{"experiment": "soluble on expression in E. coli; label from the status in PepcDB or PDB records", "values": [{"sequence": "MSFDIAKYPTLALVDSTQELRLLPKESLPKLCDELRRYLLDSVSRSSGHFASGLGTVELTVALHYVYNTPFDQLIWDVGHQAYPHKILTGRRDKIGTIRQKGGLHPFPWRGESEYDVLSVGHSSTSISAGIGIAVAAEKEGKNRRTVCVIGDGAITAGMAFEAMNHAGDIRPDMLVVLNDNEMSISENVGALNNHLAQLLSGKLYSSLREGGKKVFSGVPPIKELLKRTEEHIKGMVVPGTLFEELGFNYIGPVDGHDVLGLITTLKNMRDLKGPQFLHIMTKKGRGYEPAEKDPITFHAVPKFDPSSGCLPKSSGGLPSYSKIFGDWLCETAAKDNKLMAITPAMREGSGMVEFSRKFPDRYFDVAIAEQHAVTFAAGLAIGGYKPIVAIYSTFLQRAYDQVLHDVAIQKLPVLFAIDRAGIVGADGQTHQGAFDLSYLRCIPEMVIMTPSDENECRQMLYTGYHYNDGPSAVRYPRGNAVGVELTPLEKLPIGKGIVKRRGEKLAILNFGTLMPEAAKVAESLNATLVDMRFVKPLDETLILEMAASHEALVTVEENAIMGGAGSGVNEVLMAHRKPVPVLNIGLPDFFIPQGTQEEMRAELGLDAAGMEAKIKAWLA", "soluble on expression in E. coli": "not soluble"}, {"sequence": "MSFHVRFTLEAKADIERLYRFLAEHDFDVAERTLETIDSAWSLLEQFPFSCRKIDDANPFLREFIISFGNSGYVVLFEIEDSNTVTVLAVRHQLEDDYY", "soluble on expression in E. coli": "soluble"}, {"sequence": "MSFQNQFTKTTTDANLMETVHHGSAEYPFRYYYENIALFDFKCIDWHWHSELEFIYIESGNVVFDIGTVHFELNEGNGIMINSKILHRLQSSSDAIIPNFLFQPSFIAPQDSLIYKKYINPVISSSLEYLVFQPDIPWQKKALEIIKTIIAVQETEFNREIIVSMSVQQLWILLLENLTFDQFENMGAVISRTRLQLMMQYVHAHYSENITLEDIARTANISKSTALHLFQNNLKLTPVKYLINYRLTQAALLLINTEEKIATISNNTGFNNVDHFCRTFKKTYKMTPTDYRNQERAPVS", "soluble on expression in E. coli": "not soluble"}, {"sequence": "MSFRIYNTQKWSAEQMAPYLDKVIKSIAYFHKKFPDDYTPQTILNDILKGDKLLWIIVDEQENFMAHVTTELQKLVTGALRAVIVTLGGKGGAPLTKLIPQIEAYYKEKGAKELIIIGRRGWKKSLKSHGYFVNLLEYRKQL", "soluble on expression in E. coli": "not soluble"}, {"sequence": "MSFSADALEGGLSSLKLAADKYRSILNDEKTGNIRWRYGGPPIFDTVNKLFEEERTHVQWRYDNPPDFNSVNQLFEEGQTKVWPEGSLEETVQNAIKSWEMEFSHKIRLQDFKTINPEKFKLFVNGREGLSAEETLRLGSYNALLKNSLPEEFQYYKPEEESFESSHDAFRSALPRGFAWEILSVYSGPPVIAFKFRHWGYFEGTFKGHAPTGEMVQFLGLGVLKVDESLRAEEIEIYYDPGELFGGLLKGPPISETKTTDSGDNTAEKQSCPFTH", "soluble on expression in E. coli": "soluble"}, {"sequence": "MSFTPANRAYPYTRLRRNRRDDFSRRLVRENVLTVDDLILPVFVLDGVNQRESIPSMPGVERLSIDQLLIEAEEWVALGIPALALFPVTPVEKKSLDAAEAYNPEGIAQRATRALRERFPELGIITDVALDPFTTHGQCGILDDDGYVLNDVSIDVLVRQALSHAEAGAQVVAPSDMMDGRIGAIREALESAGHTNVRVMAYSAKYASAYYGPFRDAVGSASNLGKGNKATYQMDPANSDEALHEVAADLAEGADMVMVKPGMPYLDIVRRVKDEFRAPTFVYQVSGEYAMHMGAIQNGWLAESVILESLTAFKRAGADGILTYFAKQAAEQLRRGR", "soluble on expression in E. coli": "soluble"}, {"sequence": "MSFTPELNMAVCEFNLDSGCNAKESLIEMANNKISLETFKEHNIKALTMKYVNSESMMWEARKIVRIISRLEADEHQSRVAPKRSRSPGSTSPSASNSSSSSSELSFDMFSSKRTVPMKVTSKPKRVIAQASRTMKPHQQESRQESAEKDRANDEKLKKFIESRKLKEQAKKAANIQKCNEVKEAVMFPAKRMKKRQLEQYAYRFK", "soluble on expression in E. coli": "not soluble"}, {"sequence": "MSFTTKVKEELIHLSTGDNNELAAIIKLSGSLGLAHQSLHLSITTENAKIARYIYSLIEDAYVIVPEIRYHQKTNLRKNRVYTVYVEQGVETILADLKLADSFFGLETGIEPQVLSDDNAGRSYLKGAFLAAGSIRDPESGKYQLEIYSVYLDHAQDLAQLMQKFMLDAKTIEHKSGAVTYLQKAEDIMDFLIIIGAMSCKEDFEAIKLLREARNDINRANNAETANIAKTISASMKTINNIIKIMDTIGLESLPIELQQVAQLRVKHPDYSIQQVADALEFPITKSGVNHRLRKINKIADDL", "soluble on expression in E. coli": "not soluble"}, {"sequence": "MSGARLHTLLPELTTRQPVMVVGAAVIDVIADAYALPWRGCDIELKQQSVNVGGCALNIAVALKRLGIEAGNALPLGQGVWAEIIRNRMAKEGLISLIDNAESDNGWCLALVEPDGERTFMSFSGVENQWNRQWLARLTVAPGNLLYFSGYQLASPCGELLVEWLEKLQDVTPFIDFCPRIGDIPDALLARIMACRPLVSLNRQEAEIAAERFALSAEITTLGKQWQEKFAAPLIVRLDKEGAWYFSNDASGCIPAFPTQVVDTIGAGDSHAGGVLAGLASGLPLADAVLLGNAVASWVVGHRGGDCAPTREELLLAHKNV", "soluble on expression in E. coli": "not soluble"}, {"sequence": "MSGAYDESAMSDETTDSFWEVGNYKRTVKRIEDGHRLCNDMMSCIQERAKIEKAYSQQLTDWSKRWRQLVERGPQYGTLERAWLAVMTEAEKVSELHQEVKNNLLNEDLEKVKNWQKDAYHKQMMGGFKETKEADEGFRKAQKPWAKKLKELETAKKTYHMACKEEKIASAREANSKGEASVTTDQQKKLQEKVDKCKNDVQKAKEKYEKSLDELNKCTPQYMENMEVVFDQCQQFEEKRLNFLREVLLDTKRHLNLTESQSYATVYRELERTIVSASAQEDLKWFSSVHGPGMHMNWPQFEEFNPDLSHAISKKEKVKRNHDGVTLTQVTHGAEHGTPQTGDRGSVSSYEKNQQYSAEWSDDEQPPTAAQSASETNGGNPFEEDSKGVRVRALYDYEGQEQDELTFKAGDELTKLEDEDEQGWCKGRLDSGQLGLYPANYVEPV", "soluble on expression in E. coli": "not soluble"}, {"sequence": "MSGELKDRLVARALEEGFVSCRVCRPWDVPEMPARLGAFVEAGYHGQMGWMAERMEWRGDPAALWPEARSVIMLAESYAPDTDPMEVVGQPDRGAISVYARGKDYHDLVKKRLKRLARWLIEAGGGEVKVFVDTAPVPEKALGQAAGLGWQGKHTNLVSRDWGNWAFLGSVFTTLDLPSDPVGRDNCGSCSACLTACPTDAFPAPYRLDARRCISYLTIEHKGPVDEELRAKLGNRIYGCDDCLAACPWNKFAVAASDLRYGARPELSAPALADLARLDDAGFREMFSGSPIKRIGRDRFVRNVLYAIGNSGLPALRPVAQDLAQDSDPTVADAARWAAAKLAMSR", "soluble on expression in E. coli": "not soluble"}, {"sequence": "MSGGPVKTPFLSFIIPAYNEEQRLPSYLERVIGFFAGQSYSFEIVVVDDGSSDGTAALVKALMAQHSCLRLEALDRNRGKGFAVKTGMSAAKGQLRVFADADGATPVEEIRRLLDAREQGADIAIGSRAMRSDECIVQGRVHRKIMGTVFNGLIRALAVRGIHDSQCGFKLFTASAAEDIFPRQRITGFGFDVELLFLARRLGYVVVEVPVNWSDVEGTKVRLVRDSFRMLGEVLRIRFTNLTGGYGDIPGKTLEHHHHHH", "soluble on expression in E. coli": "not soluble"}, {"sequence": "MSGKPPAIFLMGPTAAGKTDLAIELTTVLPCELISVDSALVYRGMDIGSAKPSKEVLAAHPHRLIDILDPAQSYSAAQFRADALEAMAEITARGKIPLLVGGTMLYYKALIDGLADMPAADATVRAELEAQAEALGLAELHRQLAEVDPESAARIHPNDPQRLIRALEVYRVSGESMTAHRRRQFAESRGADAGAGGHLPYTVASLAIAPTDRHILHQRIALRFSQMLEQGFVDEVRSLRARSDLHAGLPSIRAVGYRQVWDYLDGKLTENEMRERGIIATRQLAKRQFTWLRGWPEVHWLDSLACDNLSRTLKYLGAISILSLEHHHHHH", "soluble on expression in E. coli": "soluble"}, {"sequence": "MSGKRALITGIRGQDGAYLAKLLLEKGYEVYGADRRSGEFASWRLKELGIENDVKIIHMDLLEFSNIIRTIEKVQPDEVYNLAAQSFVGVSFEQPILTAEVDAIGVLRILEALRTVKPDTKFYQASTSEMFGKVQEIPQTEKTPFYPRSPYAVAKLFGHWITVNYREAYNMFACSGILFNHESPLRGIEFVTRKITYSLARIKYGLQDKLVLGNLNAKRDWGYAPEYVEAMWLMMQQPEPDDYVIATGETHTVREFVEKAAKIAGFDIEWVGEGINEKGIDRNTGKVIVEVSEEFFRPAEVDILVGNPEKAMKKLGWKPRTTFDELVEIMMEADLKRVRDREVSV", "soluble on expression in E. coli": "soluble"}, {"sequence": "MSGLRVYSTSVTGSREIKSQQSEVTRILDGKRIQYQLVDISQDNALRDEMRTLAGNPKATPPQIVNGNHYCGDYELFVEAVEQDTLQEFLKLA", "soluble on expression in E. coli": "soluble"}, {"sequence": "MSGNSGASPQDMVKKLVYLSCTLNQKCGQRTGPHREPEPFLGFSVRDRSGLEGAIASVFQSSFDVLLYPTIYDQAAALLFKLANGHYFQDGNKRTAFHLCLAYLRANNVHVSPPRSDDVITLLQTTVSRSGSQENGIAFVRQKLLDWTVD", "soluble on expression in E. coli": "not soluble"}, {"sequence": "MSGRKFSFEVTKTSSAPAATLFRLVTDGGNWATWAKPIVAQSSWARRGDPAPGGIGAIRKLGMWPVFVQEETVEYEQDRRHVYKLVGARTPVQDYFGEVVLTPNASGGTDLRWSGSFTEKVRGTGPVMRAALGGAVRFFAGQLVKAAEREAVRR", "soluble on expression in E. coli": "soluble"}, {"sequence": "MSGSMLQLIDLCKGYVDGDEFHPVLQGAELTLNQGDQLALMGESGSGKSTLLNLIAGLDSADSGEIWFPGFPMHHTSEHHRTAFRRDNIGQIFQQYNLLPTLNIADNIRFCRQLKGLPEDAGLWRQILSALDLMPLLGRYPEEVSGGQQQRAAIARALYMEPKILLADEPTGSLDERNAEAVMRLLTTLTRQLNCALLLVTHSEKVAQHMDGCIRLQGGQLHVMARS", "soluble on expression in E. coli": "not soluble"}, {"sequence": "MSGSSEIMSMHDQIVRFSASSSAPEDTTTNSLMAEKEASLVVRLEQELTQAQICNHRLNQQLKVLANSSDKAIKIELANAKVRF", "soluble on expression in E. coli": "not soluble"}, {"sequence": "MSGTRKKALLKVIILGDSGVGKTSLMNQYVNRRFSNQYKATIGADFLTRDVNIDDRTVTLQIWDTAGQERFQSLGVAFYRGADCCVLAFDVTNAASFKSLDSWRDEFLIQASPRDPDHFPFVLLGNKVDLESQRAVSSKRAQSWCQTKGNIPYYEVSAKEALNVEAAFLAIARDALARESQETNDFPEFPDQIRLNPNQQNQQNSGCNC", "soluble on expression in E. coli": "not soluble"}, {"sequence": "MSGVRAVRISIESACEKQVHGVGLDGTETYLPPLSMSQNLARLAQRIDFSQGSGSEEGEAAGTEGDAQDWPGAGSSADQDDEEGVVKFQPSLWPWDSVRNNLRSALTEMCVLYDVLSIVRDKKFMTLDPVSQDALPPKQVFVDFNLEHHHHHH", "soluble on expression in E. coli": "not soluble"}, {"sequence": "MSHHHHHHSMSKNILDMRNTVQIGIVVRDIEESLQNYAEFFGVEKPQWFWTDDYSKAHTKFNGRPTKARAKLAFFELGPLQLELIEPDENPSTWREFLDKNGEGIHHIAFVVKDMDRKVEELYRKGMKVIQKGDFEGGRYAYIDTLRALKVMIELLENY", "soluble on expression in E. coli": "soluble"}, {"sequence": "MSIEVIAVRLTKGMDLKLSLAKLVAEHDIKAGSIASCVGCISDLNLRLAGAESTLTKREPFEIVSVMGTLTPEHQHVHISVSDREGRVWGGHLLEGTVIDTTAELIIHSYSELEFTRAMDDSTGYTELQVNPSKLEHHHHHH", "soluble on expression in E. coli": "not soluble"}, {"sequence": "MSILVIGANGGVGSKLVSQLNEEHVDFTAGVRKEDQVKELENKGIKATLIDVEKNSINDLKNIFTDYDKVIFSVGSGGSTGADKTIIVDLDGAVKTIKASKEAGIKHYVMVSTYDSRREAFDASGDLKPYTIAKHYADDYLRTSDLNYTIVHPGSLTDDAGTGKIEADLYFDKAGSIPREDVATVLKEVVTSDGFNNQEFQILSGNHGVKDALKNYESLEHHHHHH", "soluble on expression in E. coli": "soluble"}]}]}
